Data: publication PMC11865535 (Nature Communications, 2025)

Target: CUL1^FlAsH preassembled with SKP1·SKP2 (UniProt Q13616;P62877;P63208;Q13309, FlAsH fluorophore on the C-terminal tetracysteine tag)
Assay: FRET or BRET

Chain of CUL1^FlAsH preassembled with SKP1·SKP2 (Q13616 whole entry, chain 1 of 3): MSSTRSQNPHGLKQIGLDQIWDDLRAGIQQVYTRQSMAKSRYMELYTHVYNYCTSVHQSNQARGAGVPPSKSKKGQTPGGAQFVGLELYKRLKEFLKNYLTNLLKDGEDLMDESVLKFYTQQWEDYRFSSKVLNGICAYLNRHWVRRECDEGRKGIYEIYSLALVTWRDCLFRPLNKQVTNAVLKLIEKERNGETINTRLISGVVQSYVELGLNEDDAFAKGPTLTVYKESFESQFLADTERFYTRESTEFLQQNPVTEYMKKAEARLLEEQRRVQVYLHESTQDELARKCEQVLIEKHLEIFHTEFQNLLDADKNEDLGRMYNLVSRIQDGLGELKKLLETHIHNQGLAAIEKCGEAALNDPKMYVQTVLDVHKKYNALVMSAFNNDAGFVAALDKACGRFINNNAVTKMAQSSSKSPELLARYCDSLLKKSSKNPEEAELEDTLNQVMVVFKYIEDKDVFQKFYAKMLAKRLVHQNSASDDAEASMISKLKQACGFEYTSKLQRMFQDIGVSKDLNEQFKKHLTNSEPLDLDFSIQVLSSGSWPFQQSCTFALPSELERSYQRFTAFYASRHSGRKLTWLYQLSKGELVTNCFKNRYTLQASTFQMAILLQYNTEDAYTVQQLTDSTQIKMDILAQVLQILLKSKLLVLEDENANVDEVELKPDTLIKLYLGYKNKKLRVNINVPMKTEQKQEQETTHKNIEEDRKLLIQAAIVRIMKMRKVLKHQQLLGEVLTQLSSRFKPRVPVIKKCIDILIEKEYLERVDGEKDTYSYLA
Chain of CUL1^FlAsH preassembled with SKP1·SKP2 (P63208 whole entry, chain 3 of 3): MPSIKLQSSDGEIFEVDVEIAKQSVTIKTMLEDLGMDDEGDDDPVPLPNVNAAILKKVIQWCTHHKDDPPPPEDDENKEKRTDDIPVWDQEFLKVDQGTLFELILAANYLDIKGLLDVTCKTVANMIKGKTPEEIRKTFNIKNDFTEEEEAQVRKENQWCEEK
Chain of CUL1^FlAsH preassembled with SKP1·SKP2 (Q13309 whole entry, chain 4 of 3): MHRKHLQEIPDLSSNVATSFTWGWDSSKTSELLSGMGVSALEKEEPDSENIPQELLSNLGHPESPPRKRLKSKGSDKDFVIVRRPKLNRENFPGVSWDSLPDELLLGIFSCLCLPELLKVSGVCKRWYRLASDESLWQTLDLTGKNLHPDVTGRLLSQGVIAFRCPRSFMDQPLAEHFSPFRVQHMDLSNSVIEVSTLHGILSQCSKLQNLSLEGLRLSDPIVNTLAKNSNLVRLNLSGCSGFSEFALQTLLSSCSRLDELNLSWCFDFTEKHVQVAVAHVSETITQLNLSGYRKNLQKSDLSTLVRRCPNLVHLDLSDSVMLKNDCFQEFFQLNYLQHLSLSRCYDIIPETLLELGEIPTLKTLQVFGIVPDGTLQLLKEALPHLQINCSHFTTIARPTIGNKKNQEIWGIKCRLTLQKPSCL

B1: ^CFPCAND1 (natural protein)
chain: MASASYHISNLLEKMTSSDKDFRFMATNDLMTELQKDSIKLDDDSERKVVKMILKLLEDKNGEVQNLAVKCLGPLVSKVKEYQVETIVDTLCTNMLSDKEQLRDISSIGLKTVIGELPPASSGSALAANVCKKITGRLTSAIAKQEDVSVQLEALDIMADMLSRQGGLLVNFHPSILTCLLPQLTSPRLAVRKRTIIALGHLVMSCGNIVFVDLIEHLLSELSKNDSMSTTRTYIQCIAAISRQAGHRIGEYLEKIIPLVVKFCNVDDDELREYCIQAFESFVRRCPKEVYPHVSTIINICLKYLTYDPNYNYDDEDEDENAMDADGGDDDDQGSDDEYSDDDDMSWKVRRAAAKCLDAVVSTRHEMLPEFYKTVSPALISRFKEREENVKADVFHAYLSLLKQTRPVQSWLCDPDAMEQGETPLTMLQSQVPNIVKALHKQMKEKSVKTRQCCFNMLTELVNVLPGALTQHIPVLVPGIIFSLNDKSSSSNLKIDALSCLYVILCNHSPQVFHPHVQALVPPVVACVGDPFYKITSEALLVTQQLVKVIRPLDQPSSFDATPYIKDLFTCTIKRLKAADIDQEVKERAISCMGQIICNLGDNLGSDLPNTLQIFLERLKNEITRLTTVKALTLIAGSPLKIDLRPVLGEGVPILASFLRKNQRALKLGTLSALDILIKNYSDSLTAAMIDAVLDELPPLISESDMHVSQMAISFLTTLAKVYPSSLSKISGSILNELIGLVRSPLLQGGALSAMLDFFQALVVTGTNNLGYMDLLRMLTGPVYSQSTALTHKQSYYSIAKCVAALTRACPKEGPAVVGQFIQDVKNSRSTDSIRLLALLSLGEVGHHIDLSGQLELKSVILEAFSSPSEEVKSAASYALGSISVGNLPEYLPFVLQEITSQPKRQYLLLHSLKEIISSASVVGLKPYVENIWALLLKHCECAEEGTRNVVAECLGKLTLIDPETLLPRLKGYLISGSSYARSSVVTAVKFTISDHPQPIDPLLKNCIGDFLKTLEDPDLNVRRVALVTFNSAAHNKPSLIRDLLDTVLPHLYNETKVRKELIREVEMGPFKHTVDDGLDIRKAAFECMYTLLDSCLDRLDIFEFLNHVEDGLKDHYDIKMLTFLMLVRLSTLCPSAVLQRLDRLVEPLRATCTTKVKANSVKQEFEKQDELKRSAMRAVAALLTIPEAEKSPLMSEFQSQISSNPELAAIFESIQKDSSSTNLESMDTS
koff: 2.5 s⁻¹

B2: ^CFPCAND2 (natural protein)
chain: MSTAAFHISSLLEKMTSSDKDFRFMATSDLMSELQKDSIQLDEDSERKVVKMLLRLLEDKNGEVQNLAVKCLGPLVVKVKEYQVETIVDTLCTNMRSDKEQLRDIAGIGLKTVLSELPPAATGSGLATNVCRKITGQLTSAIAQQEDVAVQLEALDILSDMLSRLGVPLGAFHASLLHCLLPQLSSPRLAVRKRAVGALGHLAAACSTDLFVELADHLLDRLPGPRVPTSPTAIRTLIQCLGSVGRQAGHRLGAHLDRLVPLVEDFCNLDDDELRESCLQAFEAFLRKCPKEMGPHVPNVTSLCLQYIKHDPNYNYDSDEDEEQMETEDSEFSEQESEDEYSDDDDMSWKVRRAAAKCIAALISSRPDLLPDFHCTLAPVLIRRFKEREENVKADVFTAYIVLLRQTQPPKGWLEAMEEPTQTGSNLHMLRGQVPLVVKALQRQLKDRSVRARQGCFSLLTELAGVLPGSLAEHMPVLVSGIIFSLADRSSSSTIRMDALAFLQGLLGTEPAEAFHPHLPILLPPVMACVADSFYKIAAEALVVLQELVRALWPLHRPRMLDPEPYVGEMSAVTLARLRATDLDQEVKERAISCMGHLVGHLGDRLGDDLEPTLLLLLDRLRNEITRLPAIKALTLVAVSPLQLDLQPILAEALHILASFLRKNQRALRLATLAALDALAQSQGLSLPPSAVQAVLAELPALVNESDMHVAQLAVDFLATVTQAQPASLVEVSGPVLSELLRLLRSPLLPAGVLAAAEGFLQALVGTRPPCVDYAKLISLLTAPVYEQAVDGGPGLHKQVFHSLARCVAALSAACPQEAASTASRLVCDARSPHSSTGVKVLAFLSLAEVGQVAGPGHQRELKAVLLEALGSPSEDVRAAASYALGRVGAGSLPDFLPFLLEQIEAEPRRQYLLLHSLREALGAAQPDSLKPYAEDIWALLFQRCEGAEEGTRGVVAECIGKLVLVNPSFLLPRLRKQLAAGRPHTRSTVITAVKFLISDQPHPIDPLLKSFIGEFMESLQDPDLNVRRATLAFFNSAVHNKPSLVRDLLDDILPLLYQETKIRRDLIREVEMGPFKHTVDDGLDVRKAAFECMYSLLESCLGQLDICEFLNHVEDGLKDHYDIRMLTFIMVARLATLCPAPVLQRVDRLIEPLRATCTAKVKAGSVKQEFEKQDELKRSAMRAVAALLTIPEVGKSPIMADFSSQIRSNPELAALFESIQKDSASAPSTDSMELS
koff: 4.4 s⁻¹
